{"source": "paper PMC6764996", "key": {"[1]": {"biological_target": "full-length human DNA polymerase θ (Polθ) (human) (UniProt O75417)", "assay": "negative staining electron microscopy (single particles); 200 nM protein pre-incubated with 2 μM 26 nt ssDNA; 25 mM Tris-HCl pH 8.8, 1 mM DTT, 10 mM MgCl2, 2 mM ATP; 37 °C, 30 min; 2% uranyl acetate"}, "[2]": {"biological_target": "full-length human DNA polymerase θ (Polθ) (human) (UniProt O75417)", "assay": "negative staining electron microscopy (single particles); 200 nM protein without ssDNA; 25 mM Tris-HCl pH 8.8, 1 mM DTT, 10 mM MgCl2, 2 mM ATP; 37 °C, 30 min; applied to lacey carbon grids, 2% uranyl acetate"}, "[3]": {"biological_target": "full-length human DNA polymerase θ (Polθ) (human) (UniProt O75417)", "assay": "scanning force microscopy (volume measurements); 10 nM protein with 20 nM 26 nt ssDNA; 25 mM Tris-HCl pH 8.8, 30 mM NaCl, 10 mM MgCl2, 2 mM ATP, 0.01% NP-40, 1 mM DTT; 37 °C, 30 min; deposited on mica; volumes normalised to the monomer's volume"}}, "data": [{"substance": "full-length human DNA polymerase θ (Polθ), O75417 1-2590", "values": [{"measurement": "fold increase in large > 1000 Å multimers with ssDNA against without ssDNA", "setting": "[1]", "value": 9, "unit": "fold"}, {"measurement": "percent of Polθ as large (> 1000 Å) multimers (without ssDNA)", "setting": "[2]", "value": 3, "unit": "%"}, {"measurement": "percent of Polθ as tetramers or larger (with ssDNA)", "setting": "[3]", "value": 62, "unit": "%"}]}]}
